Measurements published in patent US11160866B2, “Biomaterials for delivery of blood extracts and methods of using same” (Mosaic Biosciences, Inc., priority 2012, dated 2021).

Molecular target: T1, Collagenase (Matrix metalloproteinase I) (Homo sapiens, UniProt P03956)
T1 sequence (P03956 100-469): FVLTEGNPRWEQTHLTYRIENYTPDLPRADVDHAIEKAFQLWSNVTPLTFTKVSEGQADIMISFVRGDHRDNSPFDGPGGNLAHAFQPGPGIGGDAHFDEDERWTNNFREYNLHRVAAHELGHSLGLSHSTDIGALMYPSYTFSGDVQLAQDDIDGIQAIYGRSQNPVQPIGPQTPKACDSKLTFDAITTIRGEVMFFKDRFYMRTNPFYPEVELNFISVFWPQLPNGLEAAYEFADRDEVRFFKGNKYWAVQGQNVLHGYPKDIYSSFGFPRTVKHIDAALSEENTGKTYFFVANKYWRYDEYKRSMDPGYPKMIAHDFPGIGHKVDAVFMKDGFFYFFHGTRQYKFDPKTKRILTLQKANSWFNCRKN
Assay: not given
Conditions: cited from earlier work

| Molecule | kcat/Km relative to that of PQGIAG |
| --- | --- |
| GPQGIAGQ | 100% |
| GPQGIASQ | 130% |
| GPQGIFGQ | >300% |
| GPQGIWGQ | >700% |
| GPQGRAGQ | <5% |
| GPQGVAGQ | 9% |
| GPVGIAGQ | 30% |

Test system: platelets
Assay: Selectively activated PRP and washed platelet releasates, PDGF-BB ELISA (Example 11)
Format: cell-based, human
Conditions: PRP and WP preparations, Patients A and B
Description: Fresh whole blood (WB) was collected into tubes containing appropriate levels of Anti-coagulant Citrate Dextrose (ACD) to prevent platelet activation and coagulation. WB samples were then split into 4 conical tubes, 50 ml WB+ACD per tube. Red Blood Cells (RBCs) were then removed by centrifuging the tubes at 3500 rpm for 10 minutes in a clinical centrifuge. Supernatants (approximately 25 ml) with some RBCs remaining were pooled into 2 conical tubes and centrifuged again at 3500 rpm for 10 minutes. Clear supernatants (plasma) were then transferred to new 50 ml conical, and Buffy Coat (BC) with some RBCs put into 15 ml conicals. […]
PRP and WPs were aliquotted into 1 ml volumes, and 4 tubes of PRP and 4 tubes of WPs were used for preparation of activated releasates: (1) no selective activation, in which no platelet activator was added (2) PAR1 activation, in which 20 ul of 500 uM PAR1 Activating Peptide (PAR1 AP) (SFLLRN, SEQ ID: 40) was added, (3) PAR4 activation, in which 20 ul of 500 uM PAR4 Activating Peptide (PAR4 AP) (AYPGKF, SEQ ID: 44) was added, and (4) ADP activation, to which 20 ul of 2.5 mM ADP (Adenosine-5′-diphosphate) was added. […] PDGF-BB levels were then measured by ELISA using a Human PDGF-BB Quantikine ELISA Kit (R&D Systems).

| Molecule | Release of PDGF-BB compared between activators |
| --- | --- |
| SFLLRN [PAR1-AP] | greatest release of PDGF-BB |

Test system: whole blood
Assay: PDGF release in ACD-anticoagulated whole blood treated with activators (Example 10)
Format: cell-based, human
Conditions: after 60 minutes
Description: Whole blood was collected from a healthy volunteer by a certified phlebotomist into a 8.5 mL ACD-containing Vacutainer. 375 ul of 0.167 mM PAR1-AP in ultrapure water or 200 ul of 0.1 unit/microliter of thrombin (Zymogenetics) were injected into the vacutainers via a sterile 1 mL syringe; samples were gently mixed by inverting 10 times and incubated at ambient temperature for specified time. The samples were then centrifugated at 2,380×g for 5 minutes at ambient temperatures and ˜3 mL clear supernatants were collected from the top of each sample and transferred into sterile 15 mL conical tubes. Concentration of PDGF-BB in each sample was determined by ELISA (Quantikine kit, R&D Systems) according to the manufacturer's protocol.

| Molecule | Signs of coagulation |
| --- | --- |
| Nc1ncnc2c1ncn2[C@@H]1O[C@H](COP(=O)(O)OP(=O)(O)O)[C@@H](O)[C@H]1O [ADP, Adenosine-5′-diphosphate] | did not |
| Thrombin | some signs of coagulation |
